Measured values taken from patent publication US20120077731A1 (Ablynx, published 2012).
Residue numbers refer to the chain shown, from its start.

T1: Cyno IL-6R (cynomolgus monkey, UniProt A0A2K5WN54 60-396)
T1 construct: also called cynomolgus monkey IL-6R; recombinant cyno sIL-6R
T1 sequence: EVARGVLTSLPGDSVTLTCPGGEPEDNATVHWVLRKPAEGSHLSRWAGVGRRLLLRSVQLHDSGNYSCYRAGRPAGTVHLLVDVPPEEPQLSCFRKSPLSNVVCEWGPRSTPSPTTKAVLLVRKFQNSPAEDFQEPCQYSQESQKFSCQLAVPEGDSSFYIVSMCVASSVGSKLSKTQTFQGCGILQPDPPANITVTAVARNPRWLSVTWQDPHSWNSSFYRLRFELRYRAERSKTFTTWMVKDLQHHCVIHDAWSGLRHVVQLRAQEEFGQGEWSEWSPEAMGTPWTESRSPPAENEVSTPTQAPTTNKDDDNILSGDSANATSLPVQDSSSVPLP

T2: Human plasma sIL-6R (human, UniProt P08887 20-355, limits assumed)
T2 construct: also called plasma-derived human IL-6R
T2 sequence (looked up): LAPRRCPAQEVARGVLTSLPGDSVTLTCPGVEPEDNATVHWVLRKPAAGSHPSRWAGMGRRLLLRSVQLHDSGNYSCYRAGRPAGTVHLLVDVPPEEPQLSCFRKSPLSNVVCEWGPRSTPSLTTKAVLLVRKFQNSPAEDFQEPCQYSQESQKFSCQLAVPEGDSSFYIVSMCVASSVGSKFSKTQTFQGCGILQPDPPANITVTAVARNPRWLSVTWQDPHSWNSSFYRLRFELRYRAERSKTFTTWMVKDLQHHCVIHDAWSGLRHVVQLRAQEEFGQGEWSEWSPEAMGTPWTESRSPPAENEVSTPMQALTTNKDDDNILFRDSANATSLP

T3: Cyno plasma sIL-6R (cynomolgus monkey, UniProt A0A2K5WN54 60-396)
T3 construct: also called cynomolgus sIL-6R
T3 sequence: T1 sequence

T4: Human soluble IL-6R (human, UniProt P08887 20-358)
T4 construct: Soluble recombinant form; biotinylated in some assays; also called hIL-6R; human IL-6R
T4 sequence (looked up): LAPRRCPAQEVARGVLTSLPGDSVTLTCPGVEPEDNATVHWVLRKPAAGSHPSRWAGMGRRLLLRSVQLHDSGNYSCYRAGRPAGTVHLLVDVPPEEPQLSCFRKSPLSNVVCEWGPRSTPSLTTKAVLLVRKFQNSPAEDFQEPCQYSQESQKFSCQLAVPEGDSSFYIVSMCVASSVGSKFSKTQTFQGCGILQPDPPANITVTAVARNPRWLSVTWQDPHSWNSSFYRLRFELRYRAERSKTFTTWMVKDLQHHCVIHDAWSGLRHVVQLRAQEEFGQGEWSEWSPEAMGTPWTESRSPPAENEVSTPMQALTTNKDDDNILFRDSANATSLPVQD

T5: Human membrane IL-6R on cells (human, UniProt P08887 20-468)
T5 sequence (looked up): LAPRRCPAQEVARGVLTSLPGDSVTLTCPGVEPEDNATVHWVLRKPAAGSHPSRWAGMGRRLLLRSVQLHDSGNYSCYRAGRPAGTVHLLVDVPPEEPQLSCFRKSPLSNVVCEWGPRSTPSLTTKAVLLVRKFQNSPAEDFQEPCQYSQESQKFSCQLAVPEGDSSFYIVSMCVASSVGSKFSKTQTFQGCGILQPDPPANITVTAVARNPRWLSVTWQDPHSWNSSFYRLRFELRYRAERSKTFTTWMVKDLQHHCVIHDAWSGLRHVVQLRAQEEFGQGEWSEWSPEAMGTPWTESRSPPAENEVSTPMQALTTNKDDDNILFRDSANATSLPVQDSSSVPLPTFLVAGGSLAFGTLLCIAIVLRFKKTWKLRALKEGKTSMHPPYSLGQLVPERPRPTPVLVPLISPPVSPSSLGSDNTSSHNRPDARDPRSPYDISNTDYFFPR

B1: IL6R201 (VHH)
VHH: EVQLVESGGGLVQPGGSLRLSCAASGFTFSDYDIGWFRQAPGKGREGVSGISSSDGNTYYADSVKGRFTISRDNAKNTLYLQMNSLRPEDTAVYYCAAEPPDSSWYLDGSPEFFKYWGQGTLVTVSS
notes: also called tagless version of IL6R75; 16R201/75
B2: PMP7D6 (VHH)
VHH: EVQLVESGGGLVQPGGSLRLSCAASGSIFRVNVMAWYRQAPGKGRELVAAVINGGTTTYADSVKGRFTISRDNAKNTLYLQMNSLRPEDTAVYYCAFVTTNSDYDLGRDYWGQGTLVTVSS
notes: not shown: c-myc and (His)6 tags
B3: PMP7C4 (VHH)
VHH: B2 VHH with S27T, I28T, V31I, A50G, V51I, N53T, G54N, T56S, T58S
notes: as for B2
B4: PMP7G8 (VHH)
VHH: B2 VHH with I28T, V31I, A50G, G54D, T56S
notes: expressed with c-myc and (His)6 tags
B5: PMP7F4 (VHH)
VHH: B2 VHH with S27T, I28T, R30K, A50G, V51I, T56S
B6: PMP7G7 (VHH)
VHH: B2 VHH with S27T, I28T, R30K, V31I, V33I, A50G, N53T, T56N
notes: as for B4
B7: IL6R81 (VHH)
VHH: EVQLVESGGGLVQPGGSLRLSCAASGFTFDDYGMSWVRQAPGRATEWVSAISWNGNNTYYTESMKGRFTISRDNAKNTVYLQMNSLRPEDTAVYYCVKGSTAIVGVPPTYPDEYDYWGQGTLVTVSS
B8: IL6R84 (VHH)
VHH: B7 VHH with R43K, A44G, T45L, V79L
B9: IL6R82 (VHH)
VHH: B7 VHH with R43K, A44G, T45L
B10: IL6R83 (VHH)
VHH: B7 VHH with V79L
B11: IL6R71 (VHH)
VHH: B1 VHH with S30D, R72S, L79V
B12: IL6R74 (VHH)
VHH: B1 VHH with S30D, R72S
B13: IL6R72 (VHH)
VHH: B1 VHH with R72S, L79V
B14: IL6R73 (VHH)
VHH: B1 VHH with S30D, L79V
B15: IL6R88 (VHH)
VHH: B7 VHH with R43K, A44G, V79L
notes: tested as periplasmic extract and purified
B16: IL6R75 (VHH)
VHH: B1 VHH
notes: also called ILR7.5; not shown: tag (IL6R201 is called the tagless version of IL6R75)

molecular target: T1, Cyno IL-6R; experiment: SPR Biacore 3000, cyno IL-6R amine-coupled to CM5
Description: Remaining reactive groups were inactivated. […] Each sample was injected for 4 min at a flow rate of 45 μl/min to allow for binding to chip-bound antigen. Next, binding buffer without Nanobody was sent over the chip at the same flow rate to allow for dissociation of bound Nanobody.

In the case of B1, the Kd is reported as 28.1 nM.

In the case of B1, the koff is reported as 0.00611 s⁻¹.

B1 showed a kon of 218000 M⁻¹ s⁻¹.

molecular target: T2, Human plasma sIL-6R; experiment: plasma potency assay, human plasma, 2.4 nM IL6; blocked ligand IL-6
Description: (§1) All 5 affinity matured Nanobodies and the sequence optimized Nanobody were also tested in a plasma potency assay. […] TMB was used as substrate.

With B2 the IC50 was 0.25 nM.

molecular target: T3, Cyno plasma sIL-6R; experiment: plasma potency assay, cyno plasma, 2.4 nM IL6; blocked ligand IL-6
Description: as §1

B2 showed an IC50 of 0.13 nM.

molecular target: T3, Cyno plasma sIL-6R; experiment: plasma potency assay, cyno plasma ([IL6R]: ~0.4 nM, [IL6]: 2.4 nM printed); sIL-6R captured on BN-12, bound IL-6 detected; blocked ligand IL-6

B3 and B2 are within 1.5-fold of each other in IC50: 0.08 nM for the first, 0.09 nM for the second.

First: B4
Second: B5
The IC50 of the first is 1.6-fold higher: 0.14 nM for the first, 0.09 nM for the second. The second is the more potent here.

In the case of B6, the IC50 is reported as 0.11 nM.

molecular target: T4, Human soluble IL-6R; experiment: Alphascreen IL-6/IL-6R competition (IL-6R 0.3 nM, bio-IL-6 3 nM); row EC50 of the fit table, axis [competitor], M; blocked ligand IL-6

Compared with B7, B8 is 6.2-fold higher in IC50: 0.0747 nM for the first, 0.465 nM for the second. The first is the more potent here.

Compared with B9, B10 is 6.1-fold lower in IC50: 0.476 nM for the first, 0.0779 nM for the second.

molecular target: T2, Human plasma sIL-6R; experiment: plasma potency ELISA, human plasma + human IL-6 50 ng/mL; sIL-6R captured on BN-12, bound IL-6 detected; blocked ligand IL-6

B1 was tested, and the “IC50 (read off the curve)” value was about 0.04 nM.

molecular target: T4, Human soluble IL-6R; experiment: Alphascreen IL-6/IL-6R competition (IL-6R 0.3 nM, bio-IL-6 3 nM); row EC50 of the fit table, axis [competitor], M; blocked ligand IL-6; remark: another data set of the same source

B11 and B12 are within 1.5-fold of each other in IC50: 0.153 nM for the first, 0.133 nM for the second.

Going from B13 to B14, the IC50 falls from 0.161 nM to 0.0916 nM (1.8-fold). The second is the more potent here.

molecular target: T2, Human plasma sIL-6R; experiment: plasma potency assay, human plasma, 42 nM IL6; blocked ligand IL-6
Description: as §1

B2 gave an IC50 of 0.95 nM.

molecular target: T3, Cyno plasma sIL-6R; experiment: plasma potency ELISA, cyno plasma + human IL-6 50 ng/mL; sIL-6R captured on BN-12, bound IL-6 detected; blocked ligand IL-6

With B1 the “IC50 (read off the curve)” value was about 0.6 nM.

molecular target: T4, Human soluble IL-6R; experiment: Biacore off-rate, periplasmic extracts

B15 was tested, and the koff was 0.00026 s⁻¹.

molecular target: T5, Human membrane IL-6R on cells; experiment: cell-based or functional assay

Compared with B16, B15 is 82-fold higher in “IC50 values (nM), XG-1 assay” value: 0.04 nM for the first, 3.3 nM for the second.

molecular target: T2, Human plasma sIL-6R; experiment: plasma potency assay, human plasma ([IL6R]: ~0.4 nM, [IL6]: 2.4 nM printed); sIL-6R captured on BN-12, bound IL-6 detected; blocked ligand IL-6

B3 and B2 are within 1.5-fold of each other in IC50: 0.21 nM for the first, 0.19 nM for the second.

B4 and B5 are within 1.5-fold of each other in IC50: 0.34 nM for the first, 0.24 nM for the second.

B6 was tested, and the IC50 was 0.22 nM.

molecular target: T4, Human soluble IL-6R; experiment: Biacore, binding to IL-6R

B11 and B12 are the same in Kd: 0.2 nM for the first, 0.2 nM for the second.

B13 and B14 are the same in Kd: 0.3 nM for the first, 0.3 nM for the second.

Going from B7 to B8, the Kd rises from 0.4 nM to 5.4 nM (14-fold). The first binds more tightly here.

First: B9
Second: B10
The Kd of the first is 17-fold higher: 5.1 nM for the first, 0.3 nM for the second.

B11 and B12 are within 1.5-fold of each other in koff: 0.000153 s⁻¹ for the first, 0.000122 s⁻¹ for the second.

B13 and B14 are within 1.5-fold of each other in koff: 0.00018 s⁻¹ for the first, 0.000233 s⁻¹ for the second.

Going from B7 to B8, the koff rises from 0.000128 s⁻¹ to 0.00409 s⁻¹ (32-fold).

First: B9
Second: B10
The koff of the first is 26-fold higher: 0.00314 s⁻¹ for the first, 0.00012 s⁻¹ for the second.

B11 and B12 are within 1.5-fold of each other in kon: 703000 M⁻¹ s⁻¹ for the first, 767000 M⁻¹ s⁻¹ for the second.

B13 and B14 are within 1.5-fold of each other in kon: 543000 M⁻¹ s⁻¹ for the first, 698000 M⁻¹ s⁻¹ for the second.

Compared with B7, B8 is 2.4-fold higher in kon: 320000 M⁻¹ s⁻¹ for the first, 762000 M⁻¹ s⁻¹ for the second.

Going from B9 to B10, the kon falls from 619000 M⁻¹ s⁻¹ to 350000 M⁻¹ s⁻¹ (1.8-fold).

molecular target: T2, Human plasma sIL-6R; experiment: plasma potency assay, human plasma, 42 nM IL6; sIL-6R captured on BN-12, bound IL-6 detected; blocked ligand IL-6

B3 and B2 are within 1.5-fold of each other in IC50: 0.9 nM for the first, 0.8 nM for the second.

Compared with B4, B5 is 2.9-fold lower in IC50: 3.5 nM for the first, 1.2 nM for the second.

With B6 the IC50 was 1.5 nM.

molecular target: T4, Human soluble IL-6R; experiment: SPR Biacore 3000, human IL-6R amine-coupled to CM5
Description: Remaining reactive groups were inactivated. Nanobody binding was assessed at various concentrations ranging from 0.5 to 50 nM. Each sample was injected for 4 min at a flow rate of 45 μl/min to allow for binding to chip-bound antigen. Next, binding buffer without Nanobody was sent over the chip at the same flow rate to allow for dissociation of bound Nanobody.

First: B16
Second: B15
The Kd of the first is 9-fold lower: 0.1 nM for the first, 0.9 nM for the second.

Going from B16 to B15, the koff rises from 0.0001 s⁻¹ to 0.000213 s⁻¹ (2.1-fold).

First: B16
Second: B15
The kon of the first is 4.3-fold higher: 1e+06 M⁻¹ s⁻¹ for the first, 230000 M⁻¹ s⁻¹ for the second.

molecular target: T4, Human soluble IL-6R; experiment: SPR (Biacore), binding curves at several concentrations of purified Nanobody on IL-6R

B3 and B2 are within 1.5-fold of each other in Kd: 0.34 nM for the first, 0.42 nM for the second.

Compared with B4, B5 is 2-fold lower in Kd: 0.95 nM for the first, 0.48 nM for the second.

With B6 the Kd was 0.56 nM.

molecular target: T4, Human soluble IL-6R; experiment: Alphascreen IL-6/IL-6R competition with purified Nanobody; row EC50 of the table, axis [inhibitor], M; blocked ligand IL-6

First: B16
Second: B15
The IC50 of the first is 1.7-fold lower: 0.0432 nM for the first, 0.0727 nM for the second.
